Measured values from patent US20210292426A1 (Hoffmann-La Roche, published 2021).
Values belong to the binder of their own block, whether it stands above or below them.

Assays:
[1] = biological target: T1, human fibroblast activation protein (huFAP) expressed on cells (human, UniProt Q12884 1-760); test: flow cytometry, NIH/3T3-huFAP cells
T1 construct: UniProt Q12884 printed; also called human FAP; hFAP
Description: (§1) Plates were centrifuged 5 minutes at 1700 rpm and supernatants were flicked off. […] Afterwards the cells were washed three times with 200 μL 4° C. cold FACS buffer. […] Data analysis was performed using the FlowJo version 10 software (FlowJo LLC).

[2] = biological target: T2, human CD40 expressed on cells (human, UniProt P25942 21-277); test: flow cytometry, primary human B cells
T2 construct: Endogenous CD40 on Raji, Daudi and primary human B cells; human CD40 on DCs of huCD40tg mice; also called huCD40; Raji cells
Description: as §1

[3] = biological target: T3, biotinylated recombinant human FAP (human, UniProt Q12884 27-760, biotinylated (site not stated)); test: SPR (Biacore), Fab
T3 construct: also called biotinylated human FAP; recombinant huFAP

[4] = biological target: T1, human fibroblast activation protein …; test: flow cytometry competition on huFAP-transfected HEK cells; unlabelled antibody titrated 0.2-60 µg/ml, then AF647-labelled 4B9 (20 µg/ml) as competitor
Description: Briefly, the target cells were harvested with Cell Dissociation buffer, washed with FACS Buffer (PBS+2% FCS+5 mM EDTA+0.25% sodium acide) and seeded into 96-U bottom plates (1×10^5 cells/well).

[5] = biological target: T3, biotinylated recombinant human FAP; test: SPR (Biacore), biotinylated huFAP immobilized, Fab analyte
Description: As running and dilution buffer, HBS-P+ (10 mM HEPES, 150 mM NaCl pH 7.4, 0.05% Surfactant P20) was used. A dilution series of anti-huFAP Fabs (3.7-300 nM, 1:3 dilution) was successively injected for 120s each, dissociation was monitored for 1800s at a flow rate of 30 μl/min (single cycle kinetics). The surface was regenerated by injecting 6 M guanidine-HCl, 0.25 M NaOH for 120 s. […] Curve fitting was performed using the 1:1 Langmuir binding model within the Biacore evaluation software.

EC50 [1]: 3.7 nM
B1: P1AE2487, CD40 (P1AE0817) x FAP (4B9) (2+1) C-terminal crossfab fusion (bispecific antibody)
chain 1: EIVLTQSPGTLSLSPGERATLSCRASQSVTSSYLAWYQQKPGQAPRLLINVGSRRATGIPDRFSGSGSGTDFTLTISRLEPEDFAVYYCQQGIMLPPTFGQGTKVEIKSSASTKGPSVFPLAPSSKSTSGGTAALGCLVKDYFPEPVTVSWNSGALTSGVHTFPAVLQSSGLYSLSSVVTVPSSSLGTQTYICNVNHKPSNTKVDKKVEPKSC
chain 2: DIVMTQTPLSLSVTPGQPASISCRSSQSLVHSNGNTFLHWYLQKPGQSPQLLIYTVSNRFSGVPDRFSGSGSGTDFTLKISRVEAEDVGVYFCSQTTHVPWTFGGGTKVEIKRTVAAPSVFIFPPSDEQLKSGTASVVCLLNNFYPREAKVQWKVDNALQSGNSQESVTEQDSKDSTYSLSSTLTLSKADYEKHKVYACEVTHQGLSSPVTKSFNRGEC
chain 3: not shown
chain 4: QVQLVQSGAEVKKPGASVKVSCKASGYSFTGYYIHWVRQAPGQSLEWMGRVIPNAGGTSYNQKFKGRVTLTVDKSISTAYMELSRLRSDDTAVYYCAREGIYWWGQGTTVTVSSASTKGPSVFPLAPSSKSTSGGTAALGCLVKDYFPEPVTVSWNSGALTSGVHTFPAVLQSSGLYSLSSVVTVPSSSLGTQTYICNVNHKPSNTKVDKKVEPKSCDKTHTCPPCPAPEAAGGPSVFLFPPKPKDTLMISRTPEVTCVVVDVSHEDPEVKFNWYVDGVEVHNAKTKPREEQYNSTYRVVSVLTVLHQDWLNGKEYKCKVSNKALGAPIEKTISKAKGQPREPQVCTLPPSRDELTKNQVSLSCAVKGFYPSDIAVEWESNGQPENNYKTTPPVLDSDGSFFLVSKLTVDKSRWQQGNVFSCSVMHEALHNHYTQKSLSLSPG

EC50 [1]: 5.53 nM | EC50 [2]: 0.085 nM
B2: P1AE3378, CD40 (P1AE0817) x FAP (4B9) (3+1) with C-terminal crossfab fusion (bispecific antibody)
chain 1: EIVLTQSPGTLSLSPGERATLSCRASQSVTSSYLAWYQQKPGQAPRLLINVGSRRATGIPDRFSGSGSGTDFTLTISRLEPEDFAVYYCQQGIMLPPTFGQGTKVEIKSSASTKGPSVFPLAPSSKSTSGGTAALGCLVKDYFPEPVTVSWNSGALTSGVHTFPAVLQSSGLYSLSSVVTVPSSSLGTQTYICNVNHKPSNTKVDKKVEPKSC
chain 2: DIVMTQTPLSLSVTPGQPASISCRSSQSLVHSNGNTFLHWYLQKPGQSPQLLIYTVSNRFSGVPDRFSGSGSGTDFTLKISRVEAEDVGVYFCSQTTHVPWTFGGGTKVEIKRTVAAPSVFIFPPSDEQLKSGTASVVCLLNNFYPREAKVQWKVDNALQSGNSQESVTEQDSKDSTYSLSSTLTLSKADYEKHKVYACEVTHQGLSSPVTKSFNRGEC
chain 3: not shown
chain 4: QVQLVQSGAEVKKPGASVKVSCKASGYSFTGYYIHWVRQAPGQSLEWMGRVIPNAGGTSYNQKFKGRVTLTVDKSISTAYMELSRLRSDDTAVYYCAREGIYWWGQGTTVTVSSASTKGPSVFPLAPSSKSTSGGTAALGCLVKDYFPEPVTVSWNSGALTSGVHTFPAVLQSSGLYSLSSVVTVPSSSLGTQTYICNVNHKPSNTKVDKKVEPKSCDGGGGSGGGGSQVQLVQSGAEVKKPGASVKVSCKASGYSFTGYYIHWVRQAPGQSLEWMGRVIPNAGGTSYNQKFKGRVTLTVDKSISTAYMELSRLRSDDTAVYYCAREGIYWWGQGTTVTVSSASTKGPSVFPLAPSSKSTSGGTAALGCLVKDYFPEPVTVSWNSGALTSGVHTFPAVLQSSGLYSLSSVVTVPSSSLGTQTYICNVNHKPSNTKVDKKVEPKSCDKTHTCPPCPAPEAAGGPSVFLFPPKPKDTLMISRTPEVTCVVVDVSHEDPEVKFNWYVDGVEVHNAKTKPREEQYNSTYRVVSVLTVLHQDWLNGKEYKCKVSNKALGAPIEKTISKAKGQPREPQVCTLPPSRDELTKNQVSLSCAVKGFYPSDIAVEWESNGQPENNYKTTPPVLDSDGSFFLVSKLTVDKSRWQQGNVFSCSVMHEALHNHYTQKSLSLSPG

T ½ [3]: 4.57 h
B6: P1AE1689_Fab (humanized clone 212, VH1G1a/VL1G1a) (Fab, V domains shown)
VH: QVQLVQSGAEVKKPGASVKVSCKASGYTLTDYNMDWVRQAPGQGLEWIGDIYPNTGGTIYNQKFKGRVTMTIDTSTSTVYMELSSLRSEDTAVYYCTRFRGIHYAMDYWGQGTTVTVSS
VL: EIVLTQSPATLSLSPGERATLSCRASESVDNYGLSFINWFQQKPGQAPRLLIYGTSNRGSGIPARFSGSGSGTDFTLTISSLEPEDFAVYFCQQSNEVPYTFGGGTKVEIK
notes: Fab

Kd [3]: 0.279 nM | T ½ [3]: 0.917 h | koff [3]: 0.000208 s⁻¹ | kon [3]: 747000 M⁻¹ s⁻¹ | Kd [5]: 0.43 nM | koff [5]: 0.00078 s⁻¹ | kon [5]: 1.82e+06 M⁻¹ s⁻¹
B8: 4B9_Fab (Fab, V domains shown)
VH: EVQLLESGGGLVQPGGSLRLSCAASGFTFSSYAMSWVRQAPGKGLEWVSAIIGSGASTYYADSVKGRFTISRDNSKNTLYLQMNSLRAEDTAVYYCAKGWFGGFNYWGQGTLVTVSS
VL: EIVLTQSPGTLSLSPGERATLSCRASQSVTSSYLAWYQQKPGQAPRLLINVGSRRATGIPDRFSGSGSGTDFTLTISRLEPEDFAVYYCQQGIMLPPTFGQGTKVEIK
notes: Fab

Second part, the binder before the results:

B3: P1AE3377, CD40 (P1AE0817) x FAP (P1AE1689) (3+1) C-terminal crossfab fusion (bispecific antibody, human IgG1, kappa, L234A L235A)
light 1: QVQLVQSGAEVKKPGASVKVSCKASGYTLTDYNMDWVRQAPGQGLEWIGDIYPNTGGTIYNQKFKGRVTMTIDTSTSTVYMELSSLRSEDTAVYYCTRFRGIHYAMDYWGQGTTVTVSSASVAAPSVFIFPPSDEQLKSGTASVVCLLNNFYPREAKVQWKVDNALQSGNSQESVTEQDSKDSTYSLSSTLTLSKADYEKHKVYACEVTHQGLSSPVTKSFNRGEC
light 2: DIVMTQTPLSLSVTPGQPASISCRSSQSLVHSNGNTFLHWYLQKPGQSPQLLIYTVSNRFSGVPDRFSGSGSGTDFTLKISRVEAEDVGVYFCSQTTHVPWTFGGGTKVEIKRTVAAPSVFIFPPSDRKLKSGTASVVCLLNNFYPREAKVQWKVDNALQSGNSQESVTEQDSKDSTYSLSSTLTLSKADYEKHKVYACEVTHQGLSSPVTKSFNRGEC
heavy 1: not shown
heavy 2: QVQLVQSGAEVKKPGASVKVSCKASGYSFTGYYIHWVRQAPGQSLEWMGRVIPNAGGTSYNQKFKGRVTLTVDKSISTAYMELSRLRSDDTAVYYCAREGIYWWGQGTTVTVSSASTKGPSVFPLAPSSKSTSGGTAALGCLVEDYFPEPVTVSWNSGALTSGVHTFPAVLQSSGLYSLSSVVTVPSSSLGTQTYICNVNHKPSNTKVDEKVEPKSCDGGGGSGGGGSQVQLVQSGAEVKKPGASVKVSCKASGYSFTGYYIHWVRQAPGQSLEWMGRVIPNAGGTSYNQKFKGRVTLTVDKSISTAYMELSRLRSDDTAVYYCAREGIYWWGQGTTVTVSSASTKGPSVFPLAPSSKSTSGGTAALGCLVEDYFPEPVTVSWNSGALTSGVHTFPAVLQSSGLYSLSSVVTVPSSSLGTQTYICNVNHKPSNTKVDEKVEPKSCDKTHTCPPCPAPEAAGGPSVFLFPPKPKDTLMISRTPEVTCVVVDVSHEDPEVKFNWYVDGVEVHNAKTKPREEQYNSTYRVVSVLTVLHQDWLNGKEYKCKVSNKALGAPIEKTISKAKGQPREPQVCTLPPSRDELTKNQVSLSCAVKGFYPSDIAVEWESNGQPENNYKTTPPVLDSDGSFFLVSKLTVDKSRWQQGNVFSCSVMHEALHNHYTQKSLSLSPG
notes: Trivalent for CD40, monovalent for FAP; knob-into-hole, P329G LALA Fc; also called CD40 x FAP (212) 3+1 crossfab
EC50 [1]: 4.94 nM | EC50 [2]: 0.038 nM

B4: P1AE1690_Fab (humanized clone 212, VH1G2a/VL1G1a) (Fab, V domains shown)
VH: QVQLVQSGAEVKKPGASVKVSCKASGYTLTDYNMDWVRQAPGKSLEWIGDIYPNTGGTIYNQKFKGRVTMTIDKSTSTVYMELSSLRSEDTAVYYCTRFRGIHYAMDYWGQGTTVTVSS
VL: EIVLTQSPATLSLSPGERATLSCRASESVDNYGLSFINWFQQKPGQAPRLLIYGTSNRGSGIPARFSGSGSGTDFTLTISSLEPEDFAVYFCQQSNEVPYTFGGGTKVEIK
notes: Fab
T ½ [3]: 3.05 h

B5: P1AE1693_Fab (humanized clone 212, VH1G2a/VL1G2a) (Fab, V domains shown)
VH: QVQLVQSGAEVKKPGASVKVSCKASGYTLTDYNMDWVRQAPGKSLEWIGDIYPNTGGTIYNQKFKGRVTMTIDKSTSTVYMELSSLRSEDTAVYYCTRFRGIHYAMDYWGQGTTVTVSS
VL: EIVLTQSPATLSLSPGERATLSCRASESVDNYGLSFINWFQQKPGQPPRLLIYGTSNRGSGIPARFSGSGSGTDFTLTISSLEPEDFAVYFCQQSNEVPYTFGGGTKVEIK
notes: Fab
T ½ [3]: 2.68 h

B7: anti-FAP antibody 28H1 (antibody, V domains shown)
VH: EVQLLESGGGLVQPGGSLRLSCAASGFTFSSHAMSWVRQAPGKGLEWVSAIWASGEQYYADSVKGRFTISRDNSKNTLYLQMNSLRAEDTAVYYCAKGWLGNFDYWGQGTLVTVSS
VL: EIVLTQSPGTLSLSPGERATLSCRASQSVSRSYLAWYQQKPGQAPRLLIIGASTRATGIPDRFSGSGSGTDFTLTISRLEPEDFAVYYCQQGQVIPPTFGQGTKVEIK
notes: also called FAP clone 28H1; FAP (28H1)
binding result [4]: binds

B9: P1AE1702_Fab (humanized clone 212, VH2G2a/VL2G2a) (Fab, V domains shown)
VH: EVQLLESGGGLVQPGGSLRLSCAASGYTLTDYNMDWVRQAPGKGLEWVGDIYPNTGGTIYNQKFKGRFTISIDKSKNTAYLQMNSLRAEDTAVYYCTRFRGIHYAMDYWGQGTTVTVSS
VL: DIQMTQSPSSLSASVGDRVTITCRASESVDNYGLSFINWFQQKPGQPPKLLIYGTSNRGSGVPSRFSGSGSGTDFTLTISSLQPEDFAMYFCQQSNEVPYTFGGGTKVEIK
notes: Fab
T ½ [3]: 1.8 h
